Data published in the nanobody polyreactivity screen of Harvey et al. (2022).

Assay: yeast display, Sf9 membrane polyspecificity reagent, FACS + sequencing; frameworks hold sequencing errors
Outline: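 Sorting gates, low and high (top ~1%), were placed on anti-HA fluorescence to track expression and on streptavidin fluorescence to track reagent binding. A clone's polyreactivity label is taken from the gate it came out of. The reagent was 10% biotinylated, detergent-solubilized Sf9 membrane, applied for 1 hour at 4 °C to galactose-induced yeast display cells.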

Sequence | polyreactivity (PSR sort gate)
QVQLVESGGGLVQAGGSLRLSCAASGLTFRYYAMGWYRQAPGKERELVAAINYSGGGTYYADSVKGRFTISRDNAKNTVYLQMNSLKPEDTAVYYCNAAYRGYYYWGQGTQVTVSS | high polyreactivity
QVQLVESGGGLVQAGRSLRLSCAASGYTFSPNDMGWYRQAPGKERELVATITYGGGTTYYADSVKGRFTISRDNAKNTVYLQMNSLKPEDTAVYYCAKDVPLYRAHDGYDYWGQGTQVTVSS | low polyreactivity
QVQLVESGGGLVQAGCSLRLSCAASGSIFYRYAMGWYRQAPGKERELVAAISRSGGRTYYADSVKGRFTISRDNAKNTVYIQMNSLKPEDTAVYNCAAESTVGTDLGGDSWGQGTQVTVSS | high polyreactivity
QVQLVESGGGLVQAGGSLRLSCAASGYIFGHYAMGWYRQAPGKERELVAGITWRGGSTYYADSVKGRFTISRDNAKNTVYLQMNSLKPEDTAVYYCNAQYTQRWPYGLYYEMDYWGQGTQVTVSS | low polyreactivity
QVQLVESGGGLVQAGGSLRLSCAASGRTFFPYAMGWYRQAPAKEREFVAAITKTDDSTYYADSVKGRFTISRDNAKNTVYLQMNSLKPEDTAVYYCNAGDTQIRFYYWGQGTQVTVSS | low polyreactivity
QVQLVESGGGLVQAGGSLRLSCAASGRIFGNYAKGWYRQAPGKERELVAAISGGGSTYYADSVKGRFTISRDNAKNTVYLQMNSLKPEDTAVYYCAARFLSSVFGRKGGYWGQGTQVTVSS | low polyreactivity
QVQLVESGGGLVQAGGSLRLSCAASGSTFYLYAMGWYRQAPGKEREFVAAISWSGGRTYYAHSVKGRFTISRDYAKNTVYLQMNSLKPEDTAVYYCAARRRYTWQYTSYDMGYWGQGTQVTVSS | low polyreactivity
QVQLVESGGGLVQAGGSLRLSCAASGRIFYPYAMGWYRPAPGKERELVAVINGSGGSTYYADSVKGRFTISRDNAKNTVYLPMNSLKPEDTAVYYCAADYPKTYTSKFNYWGQGTQVTVSS | high polyreactivity
QVQLVESGGGLVQAGGSLRLSCAASGSTFSFYAMGWYRQAPGKERELVAAISRSGGSTFYADSVKGRFTISRDNAKNTFYLQMNSLKAEDTAVYYCAAEYAYVPGWYEYWGQGTQVTVSS | high polyreactivity
QVQLVESGGGLVQAGGSLRLSCAASGITFAPYAMGWYRQAPGKERELVATITWSGGSTYYADSVKGRFTISRDNAKNTVYLQMNSLKPEDTAVYYCAAYNDTVPSAAHIYESWGQGTQVTVSS | low polyreactivity
QVQLVESGGGLVQAGGSLRLSCAASGSIFSGNAMGWYRQAPGKERELVAAISRSGGSTYYADSVKGRFTISRDNAKNTVYLQMNSLKPEDTAVYYCAAYRTHGPPRAIRFDYWGQGTQVTVSS | high polyreactivity
QVQLVESGVGLVQAGRSLRLSCAATGIIFRDNARGSNRQAPGKERELVAANSKSGGRTYYADSVKGRFTISRDNAKNTVYLQMNSLKPDDTAVYYCAKASRYWSLYYWGQGTQVTVSS | high polyreactivity
QVQLVESGGGLVQAGGSLRLSCAASGSTFTRYDMGSYRQAPGKERELVAAISKSGGSTYYADSVKGRFRISRDNAKNTVYLQMNSLKPEDTAVYYCNQLVEEDYWGQGTQVTVSS | low polyreactivity
QVQLVESGGGIVQAGGSLRLSCAASGITFGSYVMGWYRQAPGKERELVAAINIGGGTYYADSVKGRFTISRDNAKNTVYLQMISLKPEDTAVYYCARDFYWYYRAARLDYWGQGTQVTVSS | high polyreactivity
QVQLVESGGGLVQAGGSLRLSCAASGSTFFRYAMGWYRQAPGKEREFVAAITWSGTGTYYADSVKGRFTISRDNAENTVYLQMNSLKPEDTAVYYCNAEPFDLWAFYYGYVYGYYHWGQGTQVTVSS | high polyreactivity
QVHLVESGGGLVQAGGSLRLSCAASGITFATYAMGWYRQAPGKERELVAAISGGGGRTYYADSVKGRFTISRDNAKNSVYLQMNSLKPEDTAVYYCATSQRSSQFYHWGQGTQVTVSS | high polyreactivity
QVQLVESGGGLVQAGGSLRLSCAASGFTFDAYTMGWYRQAPGKERELVAAINWSGDTTYYADSVKGRFTISRDNAKNTVYLQMNSLKPEDTAVYYCAAVWWIYGVWFDYWGQGTQVTVSS | high polyreactivity
QVQLVESGGGLVQAGGSLRLSCAASGRTFCYYAMVWYRRAPGKERELVAAISWSGSRTYYADSVKGRFTISRDNANNSVYLQMTSLKPEDTAVYYCAAGARGLFWEYDYWGQGTQVTVSS | high polyreactivity
QVQLVESRGVLVQAGGSLRLSCAASGRTFYYYAMGWYRQAPRKERELVAAINTRRTSTYYADSVKGRFTISRDNAKKTVYLQMNSLKPEDTAVYYCAVDPYGDSWEDWFRNYYYGYDYWGQGTQVTVSS | low polyreactivity
QVQLVESAGGLVQAGGSLRLSCAASGRILVRNAMGWYRQAPGTERELVAAIRRGTSTNYADSVKGRFTISRDNAKNTVYLQMNSLKPEDTAVYYCAVRAASPYLDGAWRRRYDYWGQGTQVTVSS | low polyreactivity

Sequence | polyreactivity (PSR sort gate)
QVQLVESGGGLVQAGGSLRLSCAASGSTFYGNPLGWYRKAPGKERELVAAIRRSGGRTYYADSVKGRFTISRDNAKNTVYLQMNSLKPEDTAVYYCAAAKYSGAYRSTMNYWGQGTQVTVSS | high polyreactivity
QVQLVESGGGLVQAGGSLRLSCAASGSIFGGYAMGWYRQAPGKERELVAAISSGGSTYYADSVKGRFTISRDNAKNTVYLQMNSLKPEDTAVYYCNADRGNWWDYGRAYGYDYWGQGTQVTVSS | low polyreactivity
QVQLQESGGGLVQAGGSLRLTCAASGTISQEDWLGWYLQAPGKEREFVAAIGLGSNTNYADSLKGRFTISRDNAQNTVYLQMNSLKAEYTAVYYCAVSVWQYSDHVYRGQGTQVTVSS | low polyreactivity
QVQLVESGGGLVQAGGSLRLSCAASGRIFSRYAMGWYRQAPGKERELVASIRSGGSTYYADSVKGRFTIARDNAKNTVYVQMNSLKPEDTAVYYCAKGTFDLHYRKRYNYWGQGTQVTVSS | low polyreactivity
QVQLVESGGGLVQAGGSLRLSCAASGRTFVGNSMGWYRQAPGKERELVADITWSGDITYYADSVKGRFTISRDNAKNTVYLQMNSLKPEDTAVYYCAADYHRRRTDYDYWGQGTQVTVSS | low polyreactivity
QVQLVESGGGLVQAGGSLRLSCAASGRTFIKYAMGWYRQAPGKERELVAAISRNGGSTNYADSVKGRFTISRDNAKNTVYLHMNSLKPEDTAVYYCAAVGTVSRTVGYNYWGQGTQVTVSS | high polyreactivity
QVQLEESGGGLVQAGGSLRLSCAASGFTFSLYAMGWYRQAPGKERELVAAISTSGGSTYYADSVKGRFTISRDNAKNTVYLQMNSLKPEDTAVYYCAATTVYSRAYYYVTYWYGYWGQGTQVTVSS | low polyreactivity
QVQLVESGGGLVQAGGSLRLSCAASGRIFWYNAMGWYRQAPGKERELVAGITSGGRTNYADSVKGRFTISRDNAKNTVYLQMNSLKPEDTAVYYCAADVPPGEVVTNDYWGQGTQVTVSS | low polyreactivity
QVQLVESGGGLVQAGGSLRLSCAASGFTFYSYAMGWYRQAPGKERELVAAISGGGGSTYYADSVKGRFTISRDNAKNTVYLQMNSLKPEDTAVYYCAKRPAYRGYGLGYYWGQGTQVTVSS | high polyreactivity
QVQLVESGGGLVQAGGSLRLSCAASGSNFDYYTMGWYRQAPGKERELVAAISRSGGSTRYADSVKGRFTISRDNAKNTVYLQMNSLKPEDTGVSYCAAGARQGVYRGGDYWGQGTQVTVSS | low polyreactivity
QVQLVESGGGLVQAGGSLRLSCAASGSIFYINAMGWYRQAPGKERELVAAITSDGSTYYADSVKGRFTISRDNAKNTVYLQMNSLKPEDTAVYYCAADLTSDQYLYYWYWFYSWGQGTQVTVSS | low polyreactivity
QVQLVESGGGLVQARGSLRLSCAASGSIFYNNALGWYRQAPGKERELVAAISGSGDSTYYADSVKGRFTISRENAKNTVYLQMNSLKPEDTAVYYCNATPYVLWWSDMDYWGQGTQVTVSS | high polyreactivity
QVQLVESGGGLVQAGGSLRLSCAASGSIIGSYVMGWYRQAPGKERELVATITNGGSTYYADSVKGRFTISRDNAKNTVYLQMNSLKPEDTAVYYCAADGRGDLYVWPGIGGDYWGQGTQVTVSS | low polyreactivity
QVQIVESGGGLVQAGGSLRLSCAASGSIFLKYAMGWYRQAPGKERELVATFSRGGSTNYADSVKGRFTISRDNAKITVYFQMNSLKPEDTAVYNCARRRTYPPGRYYYWGQGTQVTVSS | high polyreactivity
QVQRVESGRGLVQAGGSLRLSCAASGRTFRINAMGWYRQSPGKERELVASINSGGRTYYADSVKGRFTISRDNAKNTVYLQMNSLKPEDTAVYYCAAAGGRTGDYWGQGTQVTGSS | high polyreactivity
QVQLVESGGGLVQAGGSLRFNCSASGSIFVRYTIGWYRQAPGKERELVAAISWGGGSTYYADSVKGRFTISRDNANNTVYLQMNSLKPEDTAVYYCNKRYIQLYDYWGQGTQVTVSS | low polyreactivity
QVQLVESGGGLVQAGGSLRLSCAASGRTFGGYAMGWYRQAPGKERELDASITSGGSTYYADSVKGRFTISRDNAKNTVYLEMNSLKPEDTAVYYCAADTYFETSTRAIPSNAYWGQGTQVTVSS | low polyreactivity
QDQHVESGVGLVQEGGSLRLSCAASGIIIDEYAMGLYRQAPGKERELVAAISSRGTNTYYADSVKGRFTISRDNAKNTVYLQMNSLKPEDTAVYYCAARRPPVTRHFGYWGQGTQVTVSS | high polyreactivity
QVQLVESGGGLVQAGGSLRLSCAASGRIFYYYAMGWSRQAPGKERELVADITWSGGSTYYADSVKVRFTISRDNAKNTVYLQMNSLKTEDTAVYYCNADRLRSTHDYWGQGTQVTVSS | high polyreactivity
QVQLVESGGGLVQAGGSLRLSCAASGRIFRYYAMGWYRQAPGKERELVAAISYSTGGTYYADSVKGRFTISRDNAKNTVYLQMNSLKPEDTAVYYCATSAYQIYPRYGYWGQGTQVTVSS | high polyreactivity
